How the values were obtained:
Experiment in all cases: SPR (Biacore), antibody captured, FcgR analyte
[1] = target: T1, cynomolgus monkey FcγRIIa1 extracellular domain, C-terminal His-tag (cynomolgus monkey)
T1 construct: also called cyno FcγRIIa1; cynoFcgRIIa1
T1 chain: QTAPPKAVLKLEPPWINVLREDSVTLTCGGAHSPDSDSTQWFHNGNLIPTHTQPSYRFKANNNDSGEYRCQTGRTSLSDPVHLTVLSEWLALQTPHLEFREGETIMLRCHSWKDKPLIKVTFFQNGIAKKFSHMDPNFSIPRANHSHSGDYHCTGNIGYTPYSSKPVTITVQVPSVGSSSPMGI

[2] = target: T2, cynomolgus monkey FcγRIIa2 extracellular domain, C-terminal His-tag (cynomolgus monkey)
T2 construct: also called cyno FcγRIIa2; cynoFcgRIIa2
T2 chain: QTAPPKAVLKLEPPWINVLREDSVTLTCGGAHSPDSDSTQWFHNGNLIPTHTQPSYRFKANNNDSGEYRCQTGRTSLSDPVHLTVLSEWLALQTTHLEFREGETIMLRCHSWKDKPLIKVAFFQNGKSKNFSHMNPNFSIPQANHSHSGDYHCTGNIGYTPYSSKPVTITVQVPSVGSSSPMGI

[3] = target: T3, cynomolgus monkey FcγRIIa3 extracellular domain, C-terminal His-tag (cynomolgus monkey)
T3 construct: also called cyno FcγRIIa3; cynoFcgRIIa3
T3 chain: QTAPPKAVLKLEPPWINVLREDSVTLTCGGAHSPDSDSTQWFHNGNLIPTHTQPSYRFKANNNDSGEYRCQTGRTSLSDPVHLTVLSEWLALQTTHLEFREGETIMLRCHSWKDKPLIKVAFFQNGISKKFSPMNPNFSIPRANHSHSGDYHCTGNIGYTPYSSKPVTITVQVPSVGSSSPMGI

[4] = target: T4, cynomolgus monkey FcγRIIb extracellular domain, C-terminal His-tag (cynomolgus monkey)
T4 construct: also called cyno FcγRIIb; cynoFcγRIIb
T4 chain: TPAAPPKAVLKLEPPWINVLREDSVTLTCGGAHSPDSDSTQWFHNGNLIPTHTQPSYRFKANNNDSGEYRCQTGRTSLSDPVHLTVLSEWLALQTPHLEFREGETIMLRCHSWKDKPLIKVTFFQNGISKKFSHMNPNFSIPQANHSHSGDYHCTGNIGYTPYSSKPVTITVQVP

[5] = target: T5, cynomolgus monkey FcγRIIIaS extracellular domain, C-terminal His-tag (cynomolgus monkey, UniProt Q8SPW2 21-206 at identity 1.00))
T5 construct: also called cyno FcγRIIIaS; cynoFcγRIIIaS
T5 chain: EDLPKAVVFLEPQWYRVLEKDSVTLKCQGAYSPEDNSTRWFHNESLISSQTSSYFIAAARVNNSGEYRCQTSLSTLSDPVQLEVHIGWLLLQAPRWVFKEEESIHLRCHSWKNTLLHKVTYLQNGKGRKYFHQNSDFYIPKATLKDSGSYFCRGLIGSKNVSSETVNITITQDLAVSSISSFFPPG

[6] = target: T6, human FcγRIIaH extracellular domain, C-terminal His-tag (human, UniProt P12318 34-217)
T6 construct: also called human FcγRIIa (type H); FcgRIIaH
T6 sequence: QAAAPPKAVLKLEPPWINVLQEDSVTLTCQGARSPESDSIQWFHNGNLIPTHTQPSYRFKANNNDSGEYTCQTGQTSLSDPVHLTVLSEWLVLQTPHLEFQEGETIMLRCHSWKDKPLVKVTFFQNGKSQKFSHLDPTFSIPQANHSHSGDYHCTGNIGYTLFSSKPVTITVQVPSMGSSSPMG

[7] = target: T7, human FcγRIIaR extracellular domain, C-terminal His-tag (human, UniProt P12318 34-217)
T7 construct: also called human FcγRIIa (type R); FcgRIIaR
T7 chain: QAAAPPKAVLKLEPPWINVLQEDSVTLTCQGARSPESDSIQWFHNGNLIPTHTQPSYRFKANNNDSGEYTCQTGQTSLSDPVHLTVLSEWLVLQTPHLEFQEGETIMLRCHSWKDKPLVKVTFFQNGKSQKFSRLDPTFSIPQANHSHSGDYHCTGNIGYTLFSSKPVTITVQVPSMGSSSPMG

[8] = target: T8, human FcγRIIb extracellular domain, C-terminal His-tag (human, UniProt P31994 43-217)
T8 construct: also called human FcgRIIb; FcgRIIb
T8 sequence: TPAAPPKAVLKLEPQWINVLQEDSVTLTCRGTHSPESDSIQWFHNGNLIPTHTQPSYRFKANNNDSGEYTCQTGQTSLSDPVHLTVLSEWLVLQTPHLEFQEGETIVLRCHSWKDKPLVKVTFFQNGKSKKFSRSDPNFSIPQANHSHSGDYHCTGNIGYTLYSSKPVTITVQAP

[9] = target: T9, human FcγRIIIaV extracellular domain, C-terminal His-tag (human, UniProt P08637 17-208)
T9 construct: also called human FcgRIIIaV; FcgRIIIaV
T9 sequence (P08637 17-208 F176V): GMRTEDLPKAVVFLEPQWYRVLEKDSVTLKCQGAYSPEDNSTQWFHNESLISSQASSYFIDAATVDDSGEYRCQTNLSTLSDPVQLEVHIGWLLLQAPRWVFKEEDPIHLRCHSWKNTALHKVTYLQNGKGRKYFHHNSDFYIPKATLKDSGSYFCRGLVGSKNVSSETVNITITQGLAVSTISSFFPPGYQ

Kd [1]: 0.89 µM | Kd [2]: 0.9 µM | Kd [3]: 2.4 µM | Kd [4]: 0.26 µM | Kd [5]: 4.2 µM | Kd [6]: 0.85 µM | Kd [7]: 0.67 µM | Kd [8]: 0.48 µM | Kd [9]: 23 µM
B1: M103205H795-MY538/M103202L889-SK1 (Table 19: L235W/G236N/H268D/Q295L/K326T/A330K) (antibody, human IgG1, kappa)
heavy: QVTLKESGPVLVKPTETLTLTCTVSGIDLSHDDISWVRQAPGKGLEWVGIISYAGSTYYASWAKGRLTISKDTSKNQVVLTMTNMDPVDTATYYCARGVPAYSHGGDLWGQGTLVTVSSASTKGPSVFPLAPSSKSTSGGTAALGCLVKDYFPEPVTVSWNSGALTSGVHTFPAVLQSSGLYSLSSVVTVPSSSLGTQTYICNVNHKPSNTKVDKKVEPKSCDKTHTCPPCPAPELWNGPSVFLFPPKPKDTLMISRTPEVTCVVVDVSDEDPEVKFNWYVDGVEVHNAKTKPREELYNSTYRVVSVLTVLHQDWLNGKEYKCKVSNTALPKPIEKTISKAKGQPREPQVYTLPPSREEMTKNQVSLTCLVKGFYPSDIAVEWESNGQPENNYKTTPPVLDSDGSFFLYSKLTVDKSRWQQGNVFSCSVMHEALHNHYTQKSLSLSP
light: DIVMTQSPATLSLSPGERATLSCTSSQSVYHANWLSWFQQKPGQPPKLLIYWASTLAYGVPSRFSGSGSGTDFTLTISSLQPEDAATYYCAGGYGGGRYAFGQGTKVEIKRTVAAPSVFIFPPSDEQLKSGTASVVCLLNNFYPREAKVQWKVDNALQSGNSQESVTEQDSKDSTYSLSSTLTLSKADYEKHKVYACEVTHQGLSSPVTKSFNRGEC
notes: also called MY518 (as the text names this set of substitutions)
